From the supplement of paper PMC9112550, “Optimization of the antimicrobial peptide Bac7 by deep mutational scanning” (BMC Biology, 2022)

system: Escherichia coli TOP10; test: shrunken log2 fold change of peptide-encoding DNA abundance (4.5 h post-induction vs induction); higher = less antimicrobial activity (less host growth inhibition); conditions: time post-induction: 4.5 h; library: site-saturation at positions 5, 18, 19, 20
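Also: peptides expressed intracellularly from a pBAD plasmid library in pooled LB shake-flask culture, induced with 0.3% L-arabinose, DNA abundance read by NGS, three biological replicates, DESeq2 with apeglm shrinkage.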

| Sequence | shrunken log2 fold change |
| --- | --- |
| RRIRPRPPRLPRPRPRPQECPRP | 0.0456 |
| RRIRLRPPRLPRPRPRPIYRPRP | -0.0597 |
| RRIRDRPPRLPRPRPRPLVRPRP | 0.223 |
| RRIRKRPPRLPRPRPRPSMYPRP | -0.306 |
| RRIRPRPPRLPRPRPRPEVRPRP | -0.0106 |
| RRIRWRPPRLPRPRPRPEPIPRP | 0.204 |
| RRIRIRPPRLPRPRPRPCMKPRP | -1.01 |
| RRIRTRPPRLPRPRPRPPPPPRP | 0.862 |
| RRIRQRPPRLPRPRPRPFACPRP | -0.111 |
| RRIRPRPPRLPRPRPRPHKIPRP | -0.193 |
| RRIRERPPRLPRPRPRPSMMPRP | -0.257 |
| RRIRRRPPRLPRPRPRPHGEPRP | 0.0136 |
| RRIRYRPPRLPRPRPRPPRCPRP | -0.0545 |
| RRIRARPPRLPRPRPRPTQSPRP | 0.902 |
| RRIRCRPPRLPRPRPRPKSFPRP | -0.288 |
| RRIRYRPPRLPRPRPRPWILPRP | -0.482 |
| RRIRDRPPRLPRPRPRPVRQPRP | 0.000541 |
| RRIRKRPPRLPRPRPRPQADPRP | 0.0626 |
| RRIRKRPPRLPRPRPRPNCSPRP | 0.149 |
| RRIRRRPPRLPRPRPRPHIFPRP | -0.019 |
| RRIRLRPPRLPRPRPRPSDTPRP | -0.142 |
| RRIRMRPPRLPRPRPRPMQPPRP | -0.000921 |
| RRIRSRPPRLPRPRPRPFIAPRP | -0.275 |
| RRIRGRPPRLPRPRPRPWHLPRP | -0.188 |
| RRIRLRPPRLPRPRPRPQLLPRP | -0.0176 |

| Sequence | shrunken log2 fold change |
| --- | --- |
| RRIRLRPPRLPRPRPRPWLAPRP | -0.218 |
| RRIRNRPPRLPRPRPRPQYHPRP | -0.767 |
| RRIRERPPRLPRPRPRPWPLPRP | 0.0261 |
| RRIRNRPPRLPRPRPRPEMDPRP | 0.294 |
| RRIRGRPPRLPRPRPRPMFNPRP | -0.192 |
| RRIRMRPPRLPRPRPRPERIPRP | 0.0158 |
| RRIRPRPPRLPRPRPRPGEAPRP | 0.426 |
| RRIRPRPPRLPRPRPRPHDGPRP | -0.0292 |
| RRIRPRPPRLPRPRPRPMIPPRP | -0.124 |
| RRIRVRPPRLPRPRPRPEAVPRP | 0.112 |
| RRIRYRPPRLPRPRPRPWVGPRP | -0.352 |
| RRIRERPPRLPRPRPRPPWGPRP | 0.285 |
| RRIRIRPPRLPRPRPRPCVLPRP | -0.145 |
| RRIRNRPPRLPRPRPRPQPEPRP | 0.0878 |
| RRIRFRPPRLPRPRPRPMYEPRP | -0.309 |
| RRIRSRPPRLPRPRPRPGKWPRP | -0.147 |
| RRIRMRPPRLPRPRPRPDIKPRP | 1.51 |
| RRIRGRPPRLPRPRPRPRNFPRP | 0.197 |
| RRIRLRPPRLPRPRPRPICIPRP | -0.579 |
| RRIRLRPPRLPRPRPRPCLLPRP | -0.421 |
| RRIRRRPPRLPRPRPRPNWEPRP | -0.0176 |
| RRIRWRPPRLPRPRPRPQCQPRP | 0.129 |
| RRIRNRPPRLPRPRPRPHGTPRP | -0.105 |
| RRIRERPPRLPRPRPRPCSFPRP | -0.153 |
| RRIRGRPPRLPRPRPRPMAIPRP | 0.0503 |

| Sequence | shrunken log2 fold change |
| --- | --- |
| RRIRSRPPRLPRPRPRPHDEPRP | 0.0683 |
| RRIRERPPRLPRPRPRPCIFPRP | -0.749 |
| RRIRDRPPRLPRPRPRPFYMPRP | -0.735 |
| RRIRARPPRLPRPRPRPWKEPRP | 0.00952 |
| RRIRRRPPRLPRPRPRPFWEPRP | -0.0438 |
| RRIRCRPPRLPRPRPRPCDAPRP | -0.466 |
| RRIRFRPPRLPRPRPRPCVNPRP | -0.121 |
| RRIRCRPPRLPRPRPRPMTWPRP | -0.383 |
| RRIRERPPRLPRPRPRPLCFPRP | -0.313 |
| RRIRSRPPRLPRPRPRPGMPPRP | -0.122 |
| RRIRSRPPRLPRPRPRPTRLPRP | 0.699 |
| RRIRKRPPRLPRPRPRPCYHPRP | -0.339 |
| RRIRHRPPRLPRPRPRPGWSPRP | 0.0123 |
| RRIRGRPPRLPRPRPRPMRVPRP | 1.65 |
| RRIRLRPPRLPRPRPRPNVLPRP | -0.304 |
| RRIRFRPPRLPRPRPRPGVLPRP | 0.0194 |
| RRIRQRPPRLPRPRPRPILYPRP | 0.0724 |
| RRIRYRPPRLPRPRPRPPNCPRP | -0.236 |
| RRIRMRPPRLPRPRPRPQREPRP | 0.203 |
| RRIRTRPPRLPRPRPRPCHAPRP | -0.0567 |
| RRIRNRPPRLPRPRPRPECWPRP | 0.616 |
| RRIRGRPPRLPRPRPRPMITPRP | 0.24 |
| RRIRQRPPRLPRPRPRPKGWPRP | 0.502 |
| RRIRARPPRLPRPRPRPPQLPRP | 0.753 |
| RRIRHRPPRLPRPRPRPLSVPRP | -0.136 |

| Sequence | shrunken log2 fold change |
| --- | --- |
| RRIRWRPPRLPRPRPRPALVPRP | 0.98 |
| RRIRMRPPRLPRPRPRPYTEPRP | -0.245 |
| RRIRRRPPRLPRPRPRPYSNPRP | -0.414 |
| RRIRQRPPRLPRPRPRPDIEPRP | -0.32 |
| RRIRWRPPRLPRPRPRPNWYPRP | -0.372 |
| RRIRERPPRLPRPRPRPPSFPRP | -0.126 |
| RRIRQRPPRLPRPRPRPRLDPRP | 0.205 |
| RRIRQRPPRLPRPRPRPWWRPRP | 0.0847 |
| RRIRNRPPRLPRPRPRPIVKPRP | -0.339 |
| RRIRERPPRLPRPRPRPVNDPRP | -0.0156 |
| RRIRGRPPRLPRPRPRPWMTPRP | 0.034 |
| RRIRHRPPRLPRPRPRPEWIPRP | -0.0632 |
| RRIRGRPPRLPRPRPRPAHQPRP | 0.65 |
| RRIRKRPPRLPRPRPRPVTNPRP | -0.0569 |
| RRIRIRPPRLPRPRPRPKMMPRP | -0.596 |
| RRIRFRPPRLPRPRPRPVVLPRP | 0.0119 |
| RRIRGRPPRLPRPRPRPKGFPRP | -0.0463 |
| RRIRCRPPRLPRPRPRPQITPRP | -0.639 |
| RRIRERPPRLPRPRPRPIWYPRP | 0.0381 |
| RRIRRRPPRLPRPRPRPPNQPRP | 0.337 |
| RRIRNRPPRLPRPRPRPREFPRP | 0.306 |
| RRIRSRPPRLPRPRPRPGMIPRP | -0.296 |
| RRIRLRPPRLPRPRPRPCFCPRP | -0.279 |
| RRIRARPPRLPRPRPRPNVWPRP | 0.537 |
| RRIRERPPRLPRPRPRPGCYPRP | -0.151 |

| Sequence | shrunken log2 fold change |
| --- | --- |
| RRIRKRPPRLPRPRPRPYMWPRP | -0.0774 |
| RRIRNRPPRLPRPRPRPGQPPRP | 0.0308 |
| RRIRTRPPRLPRPRPRPVGHPRP | -0.00107 |
| RRIRHRPPRLPRPRPRPMAHPRP | 0.0179 |
| RRIRCRPPRLPRPRPRPYFRPRP | -0.759 |
| RRIRKRPPRLPRPRPRPWAIPRP | 0.14 |
| RRIRERPPRLPRPRPRPHFKPRP | -0.342 |
| RRIRMRPPRLPRPRPRPWIHPRP | -0.0313 |
| RRIRMRPPRLPRPRPRPYAEPRP | 0.0571 |
| RRIRTRPPRLPRPRPRPNKPPRP | -0.0031 |
| RRIRSRPPRLPRPRPRPRHTPRP | 0.0335 |
| RRIRHRPPRLPRPRPRPWMIPRP | -0.00164 |
| RRIRMRPPRLPRPRPRPEDRPRP | -0.0526 |
| RRIRWRPPRLPRPRPRPLQVPRP | -0.125 |
| RRIRIRPPRLPRPRPRPRMGPRP | -0.192 |
| RRIRGRPPRLPRPRPRPTSPPRP | 0.491 |
| RRIRCRPPRLPRPRPRPQLVPRP | 0.569 |
| RRIRRRPPRLPRPRPRPCHDPRP | -0.105 |
| RRIRMRPPRLPRPRPRPPATPRP | 2.56 |
| RRIRLRPPRLPRPRPRPHQEPRP | -0.00192 |
| RRIRYRPPRLPRPRPRPFNPPRP | -0.0161 |
| RRIRQRPPRLPRPRPRPCKCPRP | -0.000687 |
| RRIRHRPPRLPRPRPRPRGNPRP | 0.174 |
| RRIRGRPPRLPRPRPRPSSSPRP | -0.296 |
| RRIRCRPPRLPRPRPRPPGRPRP | 1.16 |

| Sequence | shrunken log2 fold change |
| --- | --- |
| RRIRIRPPRLPRPRPRPTPNPRP | -0.0265 |
| RRIRIRPPRLPRPRPRPFEDPRP | -0.207 |
| RRIRQRPPRLPRPRPRPYYNPRP | -0.392 |
| RRIRWRPPRLPRPRPRPHTCPRP | -0.00188 |
| RRIRHRPPRLPRPRPRPCQMPRP | -0.0239 |
| RRIRMRPPRLPRPRPRPRYNPRP | -0.151 |
| RRIRKRPPRLPRPRPRPSQKPRP | 0.0284 |
| RRIRYRPPRLPRPRPRPRHPPRP | -0.266 |
| RRIRNRPPRLPRPRPRPQRDPRP | 0.0103 |
| RRIRCRPPRLPRPRPRPKTQPRP | 0.0268 |
| RRIRFRPPRLPRPRPRPRTVPRP | 0.086 |
| RRIRFRPPRLPRPRPRPGSKPRP | -0.43 |
| RRIRKRPPRLPRPRPRPFDEPRP | 0.0269 |
| RRIRDRPPRLPRPRPRPQMAPRP | 0.116 |
| RRIRLRPPRLPRPRPRPCLSPRP | 0.00058 |
| RRIRSRPPRLPRPRPRPHHHPRP | -0.736 |
| RRIRTRPPRLPRPRPRPHNGPRP | -0.0789 |
| RRIRNRPPRLPRPRPRPLSSPRP | -0.0989 |
| RRIRNRPPRLPRPRPRPITAPRP | -0.132 |
| RRIRKRPPRLPRPRPRPTRNPRP | 0.547 |
| RRIRWRPPRLPRPRPRPMPIPRP | 0.0953 |
| RRIRKRPPRLPRPRPRPSCLPRP | -0.307 |
| RRIRHRPPRLPRPRPRPSEWPRP | -0.0167 |
| RRIRERPPRLPRPRPRPRDRPRP | 0.0224 |
| RRIRPRPPRLPRPRPRPLTLPRP | 0.121 |
